One may read the Ki as the equilibrium dissociation constant of an inhibitor or competing ligand from its target. Broadly, the Km is the substrate concentration at which the rate is half of its maximum. Broadly, the kcat is the number of substrate molecules converted per active site and unit of time at saturation. As a reminder, the kcat/Km is the turnover number divided by the Michaelis constant.

Data set [1] has as its target T1, Eis_Mtb (Mycobacterium tuberculosis, UniProt P9WFK7).
T1 construct: gene eis
In words: dead-end inhibition kinetics, DTNB acetyltransferase assay, purified enzyme. The data set is classed as biochemical.

The test system of data set [2] is CCC(=O)SCCNC(=O)CCNC(=O)[C@H](O)C(C)(C)COP(=O)(O)OP(=O)(O)OC[C@H]1O[C@@H](n2cnc3c(N)ncnc32)[C@H](O)[C@@H]1OP(=O)(O)O. The data set can be described thus: purified protein.
Data set [3] concerns CC(=O)SCCNC(=O)CCNC(=O)[C@H](O)C(C)(C)COP(=O)(O)OP(=O)(O)OC[C@H]1O[C@@H](n2cnc3c(N)ncnc32)[C@H](O)[C@@H]1OP(=O)(O)O. The data set can be described thus: purified protein. Particulars: acetyl-CoA binding first followed by histamine (ordered sequential mechanism).
The test system of data set [4] is NCCc1c[nH]cn1. The data set can be described thus: purified protein.
Where [5] appears, read: acetyl-CoA binds after acetyl-CoA to form a precatalytic ternary complex.

Where two headings read alike, the source gives them in different places.

T1 sequence (P9WFK7 2-402): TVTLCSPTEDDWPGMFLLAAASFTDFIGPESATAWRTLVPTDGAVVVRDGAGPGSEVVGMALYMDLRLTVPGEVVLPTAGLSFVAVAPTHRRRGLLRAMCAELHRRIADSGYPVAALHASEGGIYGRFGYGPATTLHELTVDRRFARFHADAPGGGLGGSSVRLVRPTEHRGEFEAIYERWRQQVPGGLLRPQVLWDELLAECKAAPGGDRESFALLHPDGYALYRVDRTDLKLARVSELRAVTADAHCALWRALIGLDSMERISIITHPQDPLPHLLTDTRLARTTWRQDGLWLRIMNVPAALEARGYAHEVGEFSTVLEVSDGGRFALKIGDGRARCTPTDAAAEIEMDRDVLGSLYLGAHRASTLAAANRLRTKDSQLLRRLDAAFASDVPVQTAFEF

The molecule `CCCCCCCC/C=C\CCCCCCCC(=O)SCCNC(=O)CCNC(=O)[C@H](O)C(C)(C)COP(=O)(O)OP(=O)(O)OC[C@H]1O[C@@H](n2cnc3c(N)ncnc32)[C@H](O)[C@@H]1OP(=O)(O)O` [oleoyl-CoA] yielded a Ki in data set [1] of 0.268 ± 0.0684 µM.
With `OCCc1ccc(O)cc1` [tyrosol], the inhibition constant (Ki) in data set [1] (read-out: Ki) worked out at 175 ± 48.7 µM.
For the molecule “Eis_Msm (Mycolicibacterium smegmatis MC2 155)”, the Km in data set [2] was determined as 98 ± 23 µM.
Turning to “Eis_Mtb (Mycobacterium tuberculosis H37Rv)”, the Michaelis constant (Km) entry in data set [3] is “(1.2 ± 0.27) × 10^2 μM”; in data set [4], “(28 ± 5.2) × 10^2 μM”; in data set [2] it was 47 ± 10 µM. Further, the kcat was found to be 5.6 ± 0.2 s⁻¹ in data set [3], 0.5 ± 0.04 s⁻¹ in data set [4] (setting [5]) and 0.6 ± 0.1 s⁻¹ in data set [2]. The kcat/Km in data set [3] came out at 52000 ± 13000 M⁻¹ s⁻¹; in data set [4] (setting [5]), 170 ± 83 M⁻¹ s⁻¹; in data set [2], 14000 ± 4000 M⁻¹ s⁻¹.

For the origin of these results see PMC5799202, “Eis, a novel family of arylalkylamine N-acetyltransferase (EC 2.3.1.87)” (Scientific Reports, 2018).
